Columns and labels:
[1] = biological target: His-tagged PLS3 (wild-type phospholipid scramblase 3) (UniProt Q9NRY6)
His-tagged PLS3(T21A) = His-tagged PLS3(T21A) (UniProt Q9NRY6)
[2] = biological target: first 50-aa fragment of PLS3, His-tagged (UniProt Q9NRY6)

His-tagged PLS3(T21A), sequence (Q9NRY6 other isoform, or with tags, fused parts or gaps T21A): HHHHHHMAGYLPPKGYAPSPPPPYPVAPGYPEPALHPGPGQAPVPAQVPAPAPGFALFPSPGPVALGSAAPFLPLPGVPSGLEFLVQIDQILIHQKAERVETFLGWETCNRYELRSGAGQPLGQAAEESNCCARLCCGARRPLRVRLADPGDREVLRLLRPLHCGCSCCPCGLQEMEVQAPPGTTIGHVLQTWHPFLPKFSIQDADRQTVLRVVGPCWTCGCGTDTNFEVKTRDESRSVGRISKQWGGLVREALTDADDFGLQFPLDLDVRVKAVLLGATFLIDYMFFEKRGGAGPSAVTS

How did the “in vitro phosphorylation with [γ-32P]ATP, autoradiography” value (“in vitro phosphorylation” below) [1] turn out when “Recombinant human PKC-δ enzyme (Calbiochem)” was run?
Its value is “Phosphorylation was seen in both full-length PLS3 and its N-terminal fragment of PLS3”.

What about the “in vitro phosphorylation” value (His-tagged PLS3(T21A)) of the same substance?
The value was “mutation at Thr21 nearly eliminated PLS3 phosphorylation by PKC-δ”.

And the “in vitro phosphorylation” value [2]?
Its value is “Phosphorylation was seen in both full-length PLS3 and its N-terminal fragment of PLS3”.

Reference: patent US20080249043
